Data reported in the supplement of paper PMC5998384.

System: HeLa Kyoto
Assay: melting temperature (median over replicates), in situ; higher = more thermally stable
Details: cell cycle stage: G1/S
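Throughout, for melting temperature (median over replicates), in situ: HeLa Kyoto cells synchronized by double thymidine or nocodazole block, proteins quantified by TMT10plex mass spectrometry, three independent biological replicates.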
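Throughout, for solubility change mitosis vs G1/S (difference of NP-40 vs SDS log2 ratios): synchronized HeLa Kyoto cells (double thymidine block for G1/S, nocodazole release for mitosis), protein amounts in NP-40 versus SDS lysates quantified by mass spectrometry, three biological replicates.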

“MEAVVNLYQEVMKHADPRIQGYPLMGSPLLMTSILLTYVYFVLSLGPRIMANRKPFQLRGFMIVYNFSLVALSLYIVYEFLMSGWLSTYTWRCDPVDYSNSPEALRMVRVAWLFLFSKFIELMDTVIFILRKKDGQVTFLHVFHHSVLPWSWWWGVKIAPGGMGSFHAMINSSVHVIMYLYYGLSAFGPVAQPYLWWKKHMTAIQLIQFVLVSLHISQYYFMSSCNYQYPVIIHLIWMYGTIFFMLFSNFWYHSYTKGKRLPRALQQNGAPGIAKVKAN [ELOVL1]” showed a melting temperature of 52.8 °C.

Same assay, conditions: cell cycle stage: mitosis

First: MSGTRASNDRPPGAGGVKRGRLQQEAAATGSRVTVVLGAQWGDEGKGKVVDLLATDADIISRCQGGNNAGHTVVVDGKEYDFHLLPSGIINTKAVSFIGNGVVIHLPGLFEEAEKNEKKGLKDWEKRLIISDRAHLVFDFHQAVDGLQEVQRQAQEGKNIGTTKKGIGPTYSSKAARTGLRICDLLSDFDEFSSRFKNLAHQHQSMFPTLEIDIEGQLKRLKGFAERIRPMVRDGVYFMYEALHGPPKKILVEGANAALLDIDFGTYPFVTSSNCTVGGVCTGLGIPPQNIGDVYGVVKAYTTRVGIGAFPTEQINEIGGLLQTRGHEWGVTTGRKRRCGWLDLMILRYAHMVNGFTALALTKLDILDVLGEVKVGVSYKLNGKRIPYFPANQEMLQKVEVEYETLPGWKADTTGARRWEDLPPQAQNYIRFVENHVGVAVKWVGVGKSRESMIQLF [ADSSL1]
Second: MESQKEARTLQEPVARPSGASSSQTPNDKERREGGAVPAAAALGAEADDDSADGLWELPVEPAERRPECTRCSRPQKVCLCPFLPAHPLHISTHLYIIQHPAEENKVLRTVPLLAACLPQDKCKVKIGRRFSEERDPELSTVCRKSGTLILYPGAEAANLEEFILDSPVYPSTIIIIDGTWSQAKDIFYKNSLFRHPKQVQLKTSISSQYVIRMQPTNRCLSTLECAAVALSILEKNNYIQETLLRPLQALCSFQLQHGAQIRLSKEHLLKNGLYPKPMPKNKRKLRKMELLMNSVKI [DTWD2]
The melting temperature of the first is higher: 55.4 °C for the first, 51.2 °C for the second.

“MEAVVNLYQEVMKHADPRIQGYPLMGSPLLMTSILLTYVYFVLSLGPRIMANRKPFQLRGFMIVYNFSLVALSLYIVYEFLMSGWLSTYTWRCDPVDYSNSPEALRMVRVAWLFLFSKFIELMDTVIFILRKKDGQVTFLHVFHHSVLPWSWWWGVKIAPGGMGSFHAMINSSVHVIMYLYYGLSAFGPVAQPYLWWKKHMTAIQLIQFVLVSLHISQYYFMSSCNYQYPVIIHLIWMYGTIFFMLFSNFWYHSYTKGKRLPRALQQNGAPGIAKVKAN [ELOVL1]” gave a melting temperature of 52.4 °C.

System: HeLa Kyoto
Assay: solubility change mitosis vs G1/S (difference of NP-40 vs SDS log2 ratios) (log2 ratio difference); higher = more soluble in mitosis
Details: not given

“MEKYHVLEMIGEGSFGRVYKGRRKYSAQVVALKFIPKLGRSEKELRNLQREIEIMRGLRHPNIVHMLDSFETDKEVVVVTDYAEGELFQILEDDGKLPEDQVQAIAAQLVSALYYLHSHRILHRDMKPQNILLAKGGGIKLCDFGFARAMSTNTMVLTSIKGTPLYMSPELVEERPYDHTADLWSVGCILYELAVGTPPFYATSIFQLVSLILKDPVRWPSTISPCFKNFLQGLLTKDPRQRLSWPDLLYHPFIAGHVTIITEPAGPDLGTPFTSRLPPELQVLKDEQAHRLAPKGNQSRILTQAYKRMAEEAMQKKHQNTGPALEQEDKTSKVAPGTAPLPRLGATPQESSLLAGILASELKSSWAKSGTGEVPSAPRENRTTPDCERAFPEERPEVLGQRSTDVVDLENEEPDSDNEWQHLLETTEPVPIQLKAPLTLLCNPDFCQRIQSQLHEAGGQILKGILEGASHILPAFRVLSSLLSSCSDSVALYSFCREAGLPGLLLSLLRHSQESNSLQQQSWYGTFLQDLMAVIQAYFACTFNLERSQTSDSLQVFQEAANLFLDLLGKLLAQPDDSEQTLRRDSLMCFTVLCEAMDGNSRAISKAFYSSLLTTQQVVLDGLLHGLTVPQLPVHTPQGAPQVSQPLREQSEDIPGAISSALAAICTAPVGLPDCWDAKEQVCWHLANQLTEDSSQLRPSLISGLQHPILCLHLLKVLYSCCLVSEGLCRLLGQEPLALESLFMLIQGKVKVVDWEESTEVTLYFLSLLVFRLQNLPCGMEKLGSDVATLFTHSHVVSLVSAAACLLGQLGQQGVTFDLQPMEWMAAATHALSAPAEVRLTPPGSCGFYDGLLILLLQLLTEQGKASLIRDMSSSEMWTVLWHRFSMVLRLPEEASAQEGELSLSSPPSPEPDWTLISPQGMAALLSLAMATFTQEPQLCLSCLSQHGSILMSILKHLLCPSFLNQLRQAPHGSEFLPVVVLSVCQLLCFPFALDMDADLLIGVLADLRDSEVAAHLLQVCCYHLPLMQVELPISLLTRLALMDPTSLNQFVNTVSASPRTIVSFLSVALLSDQPLLTSDLLSLLAHTARVLSPSHLSFIQELLAGSDESYRPLRSLLGHPENSVRAHTYRLLGHLLQHSMALRGALQSQSGLLSLLLLGLGDKDPVVRCSASFAVGNAAYQAGPLGPALAAAVPSMTQLLGDPQAGIRRNVASALGNLGPEGLGEELLQCEVPQRLLEMACGDPQPNVKEAALIALRSLQQEPGIHQVLVSLGASEKLSLLSLGNQSLPHSSPRPASAKHCRKLIHLLRPAHSM [STK36]” and “MWSAGRGGAAWPVLLGLLLALLVPGGGAAKTGAELVTCGSVLKLLNTHHRVRLHSHDIKYGSGSGQQSVTGVEASDDANSYWRIRGGSEGGCPRGSPVRCGQAVRLTHVLTGKNLHTHHFPSPLSNNQEVSAFGEDGEGDDLDLWTVRCSGQHWEREAAVRFQHVGTSVFLSVTGEQYGSPIRGQHEVHGMPSANTHNTWKAMEGIFIKPSVEPSAGHDEL [SDF2L1]” are within 0.2 log units of each other in “solubility change mitosis (log2)” value: 0.092 for the first, -0.0974 for the second.

Compared with “MAGRVPSLLVLLVFPSSCLAFRSPLSVFKRFKETTRPFSNECLGTTRPVVPIDSSDFALDIRMPGVTPKQSDTYFCMSMRIPVDEEAFVIDFKPRASMDTVHHMLLFGCNMPSSTGSYWFCDEGTCTDKANILYAWARNAPPTRLPKGVGFRVGGETGSKYFVLQVHYGDISAFRDNNKDCSGVSLHLTRLPQPLIAGMYLMMSVDTVIPAGEKVVNSDISCHYKNYPMHVFAYRVHTHHLGKVVSGYRVRNGQWTLIGRQSPQLPQAFYPVGHPVDVSFGDLLAARCVFTGEGRTEATHIGGTSSDEMCNLYIMYYMEAKHAVSFMTCTQNVAPDMFRTIPPEANIPIPVKSDMVMMHEHHKETEYKDKIPLLQQPKREEEEVLDQGDFYSLLSKLLGEREDVVHVHKYNPTEKAESESDLVAEIANVVQKKDLGRSDAREGAEHERGNAILVRDRIHKFHRLVSTLRPPESRVFSLQQPPPGEGTWEPEHTGDFHMEEALDWPGVYLLPGQVSGVALDPKNNLVIFHRGDHVWDGNSFDSKFVYQQIGLGPIEEDTILVIDPNNAAVLQSSGKNLFYLPHGLSIDKDGNYWVTDVALHQVFKLDPNNKEGPVLILGRSMQPGSDQNHFCQPTDVAVDPGTGAIYVSDGYCNSRIVQFSPSGKFITQWGEESSGSSPLPGQFTVPHSLALVPLLGQLCVADRENGRIQCFKTDTKEFVREIKHSSFGRNVFAISYIPGLLFAVNGKPHFGDQEPVQGFVMNFSNGEIIDIFKPVRKHFDMPHDIVASEDGTVYIGDAHTNTVWKFTLTEKLEHRSVKKAGIEVQEIKEAEAVVETKMENKPTSSELQKMQEKQKLIKEPGSGVPVVLITTLLVIPVVVLLAIAIFIRWKKSRAFGDSEHKLETSSGRVLGRFRGKGSGGLNLGNFFASRKGYSRKGFDRLSTEGSDQEKEDDGSESEEEYSAPLPALAPSSS [PAM]”, ARPC3 is higher in “solubility change mitosis (log2)” value: -0.0982 for the first, 0.222 for the second.

Going from RPS11 to NDUFB10, the “solubility change mitosis (log2)” value falls from 0.597 to 0.185.

MTMR1 and MRPL11 are within 0.2 log units of each other in “solubility change mitosis (log2)” value: 0.0778 for the first, 0.173 for the second.
